This is an account of results in paper PMC6004266.

The target in the test is Alternative Complex III from Flavobacterium johnsoniae (Flavobacterium johnsoniae (endogenous, ATCC 17061 strain UW101)). The test can be described thus: cryo-EM structure.

As for “aa3-type cytochrome c oxidase from Flavobacterium johnsoniae (complex)”, the stoichiometry N (ACIII:cyt aa3) amounted to 1.
